Reference: the Immune Epitope Database (IEDB)

Experiments:
Assay in all cases: IEDB peptide-MHC binding, purified MHC/competitive/radioactivity; filed as Kd, often an IC50 or EC50 that approximates it; ≥ and ≤ were set here for values at or beyond the usual limits of such assays
HLA-A*11:01 = target: HLA-A*11:01
HLA-A*31:01 = target: HLA-A*31:01
HLA-A*33:01 = target: HLA-A*33:01
HLA-A*68:01 = target: HLA-A*68:01
HLA-A*03:01 = target: HLA-A*03:01
[1] = source organism: Dengue virus 4 Philippines/H241/1956
[2] = source organism: Mammarenavirus guanaritoense
[3] = source organism: Vaccinia virus WR
[4] = source organism: Dengue virus 2 Jamaica/1409/1983
[5] = source organism: Dengue virus 3 Martinique/1243/1999
[6] = source organism: SARS coronavirus Tor2
[7] = source organism: Mammarenavirus brazilense
[8] = source organism: Mammarenavirus juninense
[9] = source organism: Lassa virus Josiah
[10] = source organism: Dengue virus 2 Peru/IQT2913/1996
[11] = source organism: Dengue virus 1 Brazil/97-11/1997

Sequence: AANEMGLIEK
- Kd (HLA-A*11:01; [1]): 281 nM

Sequence: ACNKIKGKK
- Kd (HLA-A*31:01; [2]): 1840 nM
- Kd (HLA-A*33:01; [2]): 664 nM
- Kd (HLA-A*11:01; [2]): 19000 nM
- Kd (HLA-A*68:01; [2]): 1010 nM
- Kd (HLA-A*03:01; [2]): 1390 nM

Sequence: AFNDDGIYIR
- Kd (HLA-A*31:01; [3]): 618 nM
- Kd (HLA-A*33:01; [3]): 3210 nM
- Kd (HLA-A*11:01; [3]): 18100 nM
- Kd (HLA-A*68:01; [3]): 1690 nM
- Kd (HLA-A*03:01; [3]): ≥ 70100 nM

Sequence: ALRGLPIRY
- Kd (HLA-A*03:01; [4]): 52.8 nM

Sequence: AMENLKAMLY
- Kd (HLA-A*31:01; [3]): ≥ 41900 nM
- Kd (HLA-A*33:01; [3]): ≥ 70000 nM
- Kd (HLA-A*11:01; [3]): 222 nM
- Kd (HLA-A*68:01; [3]): 2790 nM
- Kd (HLA-A*03:01; [3]): 144 nM

Sequence: AMLFLISGK
- Kd (HLA-A*11:01; [5]): 211 nM
- Kd (HLA-A*03:01; [5]): 185 nM

Sequence: AMSFDGFIR
- Kd (HLA-A*31:01; [3]): 71.8 nM
- Kd (HLA-A*33:01; [3]): 3150 nM
- Kd (HLA-A*11:01; [3]): 327 nM
- Kd (HLA-A*68:01; [3]): 898 nM
- Kd (HLA-A*03:01; [3]): 9600 nM

Sequence: AQALNTLVK
- Kd (HLA-A*31:01; [6]): 3640 nM
- Kd (HLA-A*33:01; [6]): ≥ 28700 nM
- Kd (HLA-A*11:01; [6]): 15.9 nM
- Kd (HLA-A*68:01; [6]): 1630 nM
- Kd (HLA-A*03:01; [6]): 247 nM

Sequence: AQYKCVTIK
- Kd (HLA-A*31:01; [3]): 666 nM
- Kd (HLA-A*33:01; [3]): 10200 nM
- Kd (HLA-A*11:01; [3]): 37.4 nM
- Kd (HLA-A*68:01; [3]): 2180 nM
- Kd (HLA-A*03:01; [3]): 15.7 nM

Sequence: AVIIRGHLR
- Kd (HLA-A*31:01; [6]): 136 nM
- Kd (HLA-A*33:01; [6]): ≥ 28200 nM
- Kd (HLA-A*11:01; [6]): 2240 nM
- Kd (HLA-A*68:01; [6]): 2640 nM
- Kd (HLA-A*03:01; [6]): ≥ 33400 nM

Sequence: CLFDRYFKY
- Kd (HLA-A*31:01; [6]): 215 nM
- Kd (HLA-A*33:01; [6]): 1550 nM
- Kd (HLA-A*11:01; [6]): 0.59 nM
- Kd (HLA-A*68:01; [6]): 137 nM
- Kd (HLA-A*03:01; [6]): 1.43 nM

Sequence: DFKEFASGR
- Kd (HLA-A*33:01; [1]): 2.23 nM

Sequence: DFTLFIKTGH
- Kd (HLA-A*31:01; [7]): 4540 nM
- Kd (HLA-A*33:01; [7]): 131 nM
- Kd (HLA-A*11:01; [7]): ≥ 58700 nM
- Kd (HLA-A*68:01; [7]): 2480 nM

Sequence: DLLNVTYNIK
- Kd (HLA-A*31:01; [3]): 15200 nM
- Kd (HLA-A*33:01; [3]): 1110 nM
- Kd (HLA-A*11:01; [3]): 302 nM
- Kd (HLA-A*68:01; [3]): 1670 nM
- Kd (HLA-A*03:01; [3]): 367 nM

Sequence: DMISYGGGWR
- Kd (HLA-A*33:01; [1]): 506 nM

Sequence: DSVCACGLFK
- Kd (HLA-A*11:01; source organism: Mammarenavirus whitewaterense): 133 nM

Sequence: DTVWEVQGYK
- Kd (HLA-A*31:01; [6]): 7500 nM
- Kd (HLA-A*33:01; [6]): 1680 nM
- Kd (HLA-A*11:01; [6]): 74.6 nM
- Kd (HLA-A*68:01; [6]): 0.881 nM
- Kd (HLA-A*03:01; [6]): 58.4 nM

Sequence: EFIRIIRPDY
- Kd (HLA-A*31:01; [3]): 13700 nM
- Kd (HLA-A*33:01; [3]): 934 nM
- Kd (HLA-A*11:01; [3]): ≥ 69800 nM
- Kd (HLA-A*68:01; [3]): 12200 nM
- Kd (HLA-A*03:01; [3]): ≥ 21400 nM

Sequence: EKYGHLCKYH
- Kd (HLA-A*31:01; [8]): ≥ 70000 nM
- Kd (HLA-A*33:01; [8]): ≥ 70000 nM
- Kd (HLA-A*11:01; [8]): ≥ 69700 nM
- Kd (HLA-A*68:01; [8]): ≥ 70100 nM
- Kd (HLA-A*03:01; [8]): ≥ 70000 nM

Sequence: ELGELIGVNY
- Kd (HLA-A*31:01; [3]): ≥ 70000 nM
- Kd (HLA-A*33:01; [3]): ≥ 70000 nM
- Kd (HLA-A*11:01; [3]): ≥ 69800 nM
- Kd (HLA-A*68:01; [3]): ≥ 37600 nM
- Kd (HLA-A*03:01; [3]): ≥ 70100 nM

Sequence: EQNLTDTNFK
- Kd (HLA-A*31:01; [3]): ≥ 70000 nM
- Kd (HLA-A*33:01; [3]): ≥ 60600 nM
- Kd (HLA-A*11:01; [3]): 1250 nM
- Kd (HLA-A*68:01; [3]): 681 nM
- Kd (HLA-A*03:01; [3]): 17900 nM

Sequence: ESLLKETIQK
- Kd (HLA-A*31:01; [3]): 13200 nM
- Kd (HLA-A*33:01; [3]): 14800 nM
- Kd (HLA-A*11:01; [3]): 9.74 nM
- Kd (HLA-A*68:01; [3]): 332 nM
- Kd (HLA-A*03:01; [3]): 26.7 nM

Sequence: EYRLKGESR
- Kd (HLA-A*33:01; [5]): 18.6 nM

Sequence: FCKSCWFENK
- Kd (HLA-A*31:01; [9]): 2430 nM
- Kd (HLA-A*33:01; [9]): 9190 nM
- Kd (HLA-A*03:01; [9]): ≥ 20000 nM

Sequence: FLALGFFLR
- Kd (HLA-A*31:01; [5]): 43 nM
- Kd (HLA-A*33:01; [5]): 26.5 nM
- Kd (HLA-A*68:01; [5]): 2.14 nM

Sequence: FNMLKRERNR
- Kd (HLA-A*33:01; [4]): 53.7 nM

Sequence: FTDPSSVAAR
- Kd (HLA-A*68:01; [1]): 67.7 nM

Sequence: FTFGDTALY
- Kd (HLA-A*31:01; [3]): 14300 nM
- Kd (HLA-A*33:01; [3]): ≥ 50000 nM
- Kd (HLA-A*11:01; [3]): 192 nM
- Kd (HLA-A*68:01; [3]): 2.27 nM
- Kd (HLA-A*03:01; [3]): 612 nM

Sequence: GAVVKSDNK
- Kd (HLA-A*31:01; [3]): ≥ 77900 nM
- Kd (HLA-A*33:01; [3]): ≥ 77700 nM
- Kd (HLA-A*11:01; [3]): 782 nM
- Kd (HLA-A*68:01; [3]): 12500 nM
- Kd (HLA-A*03:01; [3]): 15400 nM

Sequence: GIEFADNDR
- Kd (HLA-A*31:01; [3]): 7550 nM
- Kd (HLA-A*33:01; [3]): 6540 nM
- Kd (HLA-A*11:01; [3]): 1740 nM
- Kd (HLA-A*68:01; [3]): 762 nM
- Kd (HLA-A*03:01; [3]): 2420 nM

Sequence: GLKIEEIEK
- Kd (HLA-A*31:01; [3]): 13200 nM
- Kd (HLA-A*33:01; [3]): 16300 nM
- Kd (HLA-A*11:01; [3]): 6510 nM
- Kd (HLA-A*68:01; [3]): 16800 nM
- Kd (HLA-A*03:01; [3]): 5630 nM

Sequence: GTGLWTHDK
- Kd (HLA-A*31:01; [3]): 805 nM
- Kd (HLA-A*33:01; [3]): ≥ 65600 nM
- Kd (HLA-A*11:01; [3]): 0.361 nM
- Kd (HLA-A*68:01; [3]): 156 nM
- Kd (HLA-A*03:01; [3]): 24.7 nM

Sequence: GVIRSIFAR
- Kd (HLA-A*31:01; [6]): 1.02 nM
- Kd (HLA-A*33:01; [6]): 118 nM
- Kd (HLA-A*11:01; [6]): 0.618 nM
- Kd (HLA-A*68:01; [6]): 0.519 nM
- Kd (HLA-A*03:01; [6]): 1300 nM

Sequence: IFLFLMSGR
- Kd (HLA-A*31:01; [10]): 59.9 nM
- Kd (HLA-A*33:01; [10]): 10 nM

Sequence: IGKMFEATAR
- Kd (HLA-A*33:01; [11]): 637 nM

Sequence: IIGPMFSGK
- Kd (HLA-A*31:01; [3]): 6320 nM
- Kd (HLA-A*33:01; [3]): 7360 nM
- Kd (HLA-A*11:01; [3]): 1.79 nM
- Kd (HLA-A*68:01; [3]): 100 nM
- Kd (HLA-A*03:01; [3]): 0.73 nM

Sequence: IITVGMLIY
- Kd (HLA-A*31:01; [3]): 1080 nM
- Kd (HLA-A*33:01; [3]): 1150 nM
- Kd (HLA-A*11:01; [3]): 6770 nM
- Kd (HLA-A*68:01; [3]): 608 nM
- Kd (HLA-A*03:01; [3]): 1520 nM

Sequence: ILARWSSFKK
- Kd (HLA-A*03:01; [11]): 1.39 nM

Sequence: ILKRWGTIKK
- Kd (HLA-A*03:01; [4]): 47.4 nM

Sequence: IMFEQYFIY
- Kd (HLA-A*31:01; [3]): 229 nM
- Kd (HLA-A*33:01; [3]): 3260 nM
- Kd (HLA-A*11:01; [3]): ≥ 77900 nM
- Kd (HLA-A*68:01; [3]): 205 nM
- Kd (HLA-A*03:01; [3]): 3.67 nM

Sequence: IMNLEMIDER
- Kd (HLA-A*31:01; [3]): 1280 nM
- Kd (HLA-A*33:01; [3]): 1560 nM
- Kd (HLA-A*11:01; [3]): 19200 nM
- Kd (HLA-A*68:01; [3]): 3610 nM
- Kd (HLA-A*03:01; [3]): ≥ 70100 nM

Sequence: ISGIGTFLHY
- Kd (HLA-A*31:01; [3]): ≥ 60500 nM
- Kd (HLA-A*33:01; [3]): 13800 nM
- Kd (HLA-A*11:01; [3]): 364 nM
- Kd (HLA-A*68:01; [3]): 19700 nM
- Kd (HLA-A*03:01; [3]): 355 nM

Sequence: ITANPVVTK
- Kd (HLA-A*11:01; [5]): 22.3 nM
- Kd (HLA-A*68:01; [5]): 47.9 nM
- Kd (HLA-A*03:01; [5]): 18.1 nM

Sequence: IVMLHTTER
- Kd (HLA-A*31:01; [1]): 2.36 nM
- Kd (HLA-A*33:01; [1]): 13.9 nM
- Kd (HLA-A*68:01; [1]): 19.7 nM
